Results reported in US20170106084A1 (Hoffmann-La Roche, published 2017).
Numbering of substitutions follows the chain as printed. Square brackets hold non-standard residues; d marks the D form. Ends that are not written are not given here. pS = N[C@@H](COP(=O)(O)O)C(=O)O

Assays:
[1] = target: T1, transferrin receptor on hCMEC/D3 cells (UniProt P02786 1-760, limits assumed); test: transwell assay on hCMEC/D3 cells, huFc ELISA
T1 construct: whole, on cells; also called TfR

[2] = target: T1, transferrin receptor on hCMEC/D3 cells; test: transwell assay on hCMEC/D3 cells, huFc ELISA; remark: listed apart in the source
[3] = target: full length human tau S422A mutant (human, UniProt P10636 2-758); test: ELISA, coated antigen
Sequence of full length human tau S422A mutant (P10636 other isoform, or with tags, fused parts or gaps S422A S422A limits assumed): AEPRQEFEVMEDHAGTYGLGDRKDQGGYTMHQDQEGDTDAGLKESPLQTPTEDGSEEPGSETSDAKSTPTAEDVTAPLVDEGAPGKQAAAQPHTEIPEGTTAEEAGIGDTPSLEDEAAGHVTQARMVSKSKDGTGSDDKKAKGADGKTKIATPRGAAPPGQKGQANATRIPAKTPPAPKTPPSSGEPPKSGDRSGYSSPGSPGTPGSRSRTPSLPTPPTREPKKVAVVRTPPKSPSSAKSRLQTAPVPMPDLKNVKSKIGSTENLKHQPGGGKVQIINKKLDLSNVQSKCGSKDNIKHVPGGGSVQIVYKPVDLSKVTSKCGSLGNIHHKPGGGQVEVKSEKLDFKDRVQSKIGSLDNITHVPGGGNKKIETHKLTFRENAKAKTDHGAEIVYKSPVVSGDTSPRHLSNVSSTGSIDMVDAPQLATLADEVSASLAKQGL

[4] = target: T2, human tau(pS422) fragment SEQ ID NO: 03 (human, also: biotinylated); test: ELISA, coated antigen
T2 construct: also called phosphorylated tau peptide
T2 peptide: SIDMVD[pS]PQLATLAD

[5] = target: T3, tau peptide residues 416 to 430 of SEQ ID NO: 01 (human, also: biotinylated, site not given here); test: ELISA, coated antigen
T3 construct: also called non-phosphorylated tau peptide
T3 peptide: SIDMVDSPQLATLAD

[6] = target: T4, MCAK_Human (88-102)[95-pSer] (human, UniProt Q99661 88-102, also: biotinylated, site not given here); test: ELISA, single point
T4 construct: also called MCAK phosphopeptide
T4 peptide (looked up): IQKQKRR[pS]VNSKIPA

[7] = target: T2, human tau(pS422) fragment SEQ ID NO: 03; test: ELISA, ratio of EC50 values
Protocol: (§1) Rabbit monoclonal antibodies were recombinantly expressed in HEK 293 cells. […] Coating with KLH or control peptides was performed at 1 μg/ml. […] After intensive washing, the binding of the rabbit antibodies was detected using a sheep anti-rabbit IgG digoxigenin conjugated detection antibody (Chemicon AQ301D). […] The antibody binding was characterized by its EC50 values. […] Cross-reactivity with KLH or MCAK phosphopeptide was estimated by single-point measurement at high concentrations, i.e. at 1:5 dilution of the cell culture supernatants.

[8] = target: T2, human tau(pS422) fragment SEQ ID NO: 03; test: ELISA, biotinylated peptide on streptavidin plate
Protocol: as §1

[9] = target: T3, tau peptide residues 416 to 430 of SEQ …; test: ELISA, biotinylated peptide on streptavidin plate
Protocol: as §1

[10] = target: T1, transferrin receptor on hCMEC/D3 cells; test: transwell assay on hCMEC/D3 cells, IgG ELISA
Protocol: We used brain endothelial cells (hCMEC/D3) to investigate cell binding and transcytosis of the shuttle modules as reported herein. […] Cell monolayers were washed at room temperature in serum-free medium apically (400 μl) and basolaterally (1600 μl) three times for 3-5 minutes each. All wash volumes were collected to monitor efficiency of removal of the unbound ligand or antibody. Pre-warmed medium was added to the apical chamber and the filters transferred to a fresh 12 well plate (blocked overnight with PBS containing 1% BSA) containing 1600 μl pre-warmed medium. At this point, cells were lysed in 500 μl RIPA buffer (Sigma, Munich, Germany, #R0278) in order to determine specific uptakes. The remaining filters were incubated at 37° C. and samples collected at various time points to determine apical and/or basolateral release. The content of antibody in the samples was quantified using a highly sensitive IgG ELISA.

T1 sequence (P02786 whole entry): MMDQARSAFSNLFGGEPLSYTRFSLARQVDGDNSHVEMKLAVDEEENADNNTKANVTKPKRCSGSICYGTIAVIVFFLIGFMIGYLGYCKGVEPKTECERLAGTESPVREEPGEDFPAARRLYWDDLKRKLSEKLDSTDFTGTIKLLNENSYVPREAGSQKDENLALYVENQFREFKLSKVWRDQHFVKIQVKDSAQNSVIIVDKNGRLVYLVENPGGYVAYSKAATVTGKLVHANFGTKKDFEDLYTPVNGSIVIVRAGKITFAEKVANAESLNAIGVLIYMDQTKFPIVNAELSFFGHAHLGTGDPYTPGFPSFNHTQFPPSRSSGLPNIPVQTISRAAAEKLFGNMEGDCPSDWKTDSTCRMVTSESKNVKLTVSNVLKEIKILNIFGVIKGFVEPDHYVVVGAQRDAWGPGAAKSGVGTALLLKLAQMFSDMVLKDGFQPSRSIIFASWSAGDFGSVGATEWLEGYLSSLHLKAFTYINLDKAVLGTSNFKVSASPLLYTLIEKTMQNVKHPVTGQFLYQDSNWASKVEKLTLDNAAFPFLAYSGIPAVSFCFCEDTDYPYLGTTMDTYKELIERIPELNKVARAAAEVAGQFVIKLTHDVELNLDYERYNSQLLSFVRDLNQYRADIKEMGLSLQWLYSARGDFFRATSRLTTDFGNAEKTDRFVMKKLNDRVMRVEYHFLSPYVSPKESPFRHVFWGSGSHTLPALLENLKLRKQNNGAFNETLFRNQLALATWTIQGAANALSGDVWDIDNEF

B1: anti-TfR1 antibody (TfR1) (antibody, V domains shown)
VH: EVQLQQSGPELVKPGASMKISCKASGYSFTGYTMNWVKQSHGENLEWIGRINPHNGGTDYNQKFKDKAPLTVDKSSNTAYMELLSLTSEDSAVYYCARGYYYYSLDYWGQGTSVTVSS
VL: QIVLTQSPAIMSASPGEKVTMTCSASSSIRYIHWYQQRPGTSPKRWIYDTSNLASGVPARFSGSGSGTSYSLTISSMEAEDAATYYCHQRNSYPWTFGGGTRLEIKR
notes: also called parent antibody
binding result [1]: binds

B2: anti-TfR2 antibody (TfR2) (antibody, V domains shown)
VH: EVQLQQSGPELVKPGASVKMSCKASGYTFTSYVMHWVKQKPGQGLEWIGYVNPYNDDTKYNEKFRGKATLTSDKSSSTAYMELSSLTSEDSAVYYCARSYYYYSMDNWGQGTSVTVSS
VL: B1 VL with M21V, I32M, R38K, N52E, S75N, N91S, W95F, R102K
notes: also called parent antibody
binding result [2]: binds

B3: VH00/VL00 (antibody, V domains shown)
VH: QSVEESGGRLVTPGTPLTLTCTVSGFSLSSNAINWVRQAPGKGLEWIGYIAVSGNTYYASWAKGRFTISKASTTVDLKMTSPTAEDTGTYFCGKSNIWGPGTLVTVSL
VL: AQVLTQTTSPVSAAVGSTVTISCQSSQSVRTNKLAWFQQKPGQPPKRLIYSASTLDFGVPSRFSASGSGTQFTLTISDVQCDDAATYYCLGYFDCSIADCVAFGGGTEVVVK
notes: rabbit variable domains; also called VH00 with VL00 (rabbit antibody); parent rabbit antibody
EC50 [3]: 0.0479 µg/mL

B4: VH32/VL21 (antibody, V domains shown)
VH: EVQVLESGGGLVQPGGSLRLSCAVSGFSLSSNAINWVRQAPGKGLEWVGYIAVSGNTYYASWAKGRFTISRDNSKNTVYLQMNSLRAEDTAVYYCGKSNIWGQGTLVTVSS
VL: AQVMTQSPSSLSASVGDRVTITCRSSQSVRTNKLAWFQQKPGQPPKRLIYSASTLDFGVPSRFSGSGSGTEFTLTISSLQPEDFATYYCLGYFDSSADIVAFGGGTKVEIK
notes: full size IgG; kappa (59) or lambda (60) light constant not specified
EC50 [4]: 0.0044 µg/mL | EC50 [3]: 0.0215 µg/mL | EC50 [5]: 0.634 µg/mL

B5: VH32/VL22 (antibody, V domains shown)
VH: B4 VH
VL: B4 VL with K33R, F57Y
notes: as for B4
EC50 [3]: 0.0174 µg/mL | EC50 [5]: 0.048 µg/mL

B6: mAb 086 (antibody, V domains shown)
VH: B3 VH
VL: B3 VL
notes: recombinant rabbit IgG; also called rabbit antibody mAb 086
binding result [6]: no binding | selectivity against non-phosphorylated tau peptide [7]: ≥ 100 fold | EC50 [8]: 0.0011 µg/mL | EC50 [9]: 0.266 µg/mL

B7: TfR1-Bio (bispecific antibody, human IgG1, kappa)
heavy: not shown
light: QIVLTQSPAIMSASPGEKVTMTCSASSSIRYIHWYQQRPGTSPKRWIYDTSNLASGVPARFSGSGSGTSYSLTISSMEAEDAATYYCHQRNSYPWTFGGGTRLEIKRTVAAPSVFIFPPSDEQLKSGTASVVCLLNNFYPREAKVQWKVDNALQSGNSQESVTEQDSKDSTYSLSSTLTLSKADYEKHKVYACEVTHQGLSSPVTKSFNRGEC
notes: bivalent anti-TfR1 IgG with an anti-biotin scFv at each CH3 C-terminus; also called anti-TfR1 antibody-Bio
binding result [10]: binds

B8: TfR2-Bio (bispecific antibody, human IgG1, kappa)
heavy: not shown
light: B7 light with M21V, I32M, R38K, N52E, S75N, N91S, W95F, R102K
notes: bivalent anti-TfR2 IgG with an anti-biotin scFv at each CH3 C-terminus; also called anti-TfR2-Bio
binding result [10]: binds
